The text below walks through data of patent US20230140797A1 (published 2023).

The target of assay [1] is human FcγRIa extracellular domain with C-terminal His tag (human, UniProt P12314 16-292). The experiment in a line: SPR Biacore, amount bound per captured antibody. (In general: Surface plasmon resonance follows binding to a sensor surface in real time, without labels.)
Assay [2] has as its target T1, human FcγRIIa type H extracellular domain with C-terminal His tag (human, UniProt P12318 34-217).
T1 sequence (looked up): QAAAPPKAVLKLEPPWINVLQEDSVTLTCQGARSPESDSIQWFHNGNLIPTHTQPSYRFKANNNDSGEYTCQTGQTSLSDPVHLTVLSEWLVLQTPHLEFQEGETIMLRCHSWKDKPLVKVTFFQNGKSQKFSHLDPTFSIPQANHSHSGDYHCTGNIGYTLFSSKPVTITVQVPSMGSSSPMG
Put plainly: SPR Biacore, amount bound per captured antibody.

For assay [3], the target named is T2, human FcγRIIb extracellular domain with C-terminal His tag (human, UniProt P31994 43-217).
T2 sequence (looked up): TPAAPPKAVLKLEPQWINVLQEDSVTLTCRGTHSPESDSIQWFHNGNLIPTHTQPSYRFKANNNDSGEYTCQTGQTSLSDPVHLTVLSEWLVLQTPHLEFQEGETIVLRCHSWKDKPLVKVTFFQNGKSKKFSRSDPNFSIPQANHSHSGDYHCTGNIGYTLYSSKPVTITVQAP
Put plainly: SPR Biacore, amount bound per captured antibody.

The target of assay [4] is human FcγRIIIa type V extracellular domain with C-terminal His tag (human, UniProt P08637 17-208). The experiment in a line: SPR Biacore, amount bound per captured antibody.
Chain of human FcγRIIIa type V extracellular domain with C-terminal His tag (P08637 17-208 F176V): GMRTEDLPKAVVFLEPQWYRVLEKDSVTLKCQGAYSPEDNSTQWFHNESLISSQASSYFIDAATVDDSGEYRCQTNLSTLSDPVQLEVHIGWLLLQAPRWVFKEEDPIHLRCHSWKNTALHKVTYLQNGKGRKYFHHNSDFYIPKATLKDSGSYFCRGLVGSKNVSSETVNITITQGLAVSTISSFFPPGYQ
In assay [5] the target is T3, human FcγRIIa type R extracellular domain with C-terminal His tag (human, UniProt P12318 34-217).
T3 sequence (looked up): T1 sequence (looked up) with H134R
Put plainly: SPR Biacore, amount bound per captured antibody.

Assay [6] has as its target T4, biotinylated GPC3 peptide (human, biotin on the C-terminal Lys).
T4 peptide: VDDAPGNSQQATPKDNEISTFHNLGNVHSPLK
Put plainly: Biacore T200 SPR, peptide on Sensor chip SA.

Assay [7] deals with T5, human FcγRIIb extracellular domain with C-terminal His tag (human, UniProt P31994 43-217).
T5 sequence (looked up): T2 sequence (looked up)
The experiment in a line: Biacore SPR.

Assay [8] deals with T6, human FcγRIIa type R extracellular domain with C-terminal His tag (human, UniProt P12318 34-217).
T6 sequence (looked up): T1 sequence (looked up) with H134R
Put plainly: Biacore SPR.

The target in a further assay is human IgA (hIgA) (human). The experiment in a line: Biacore T200 SPR.

Numbering of substitutions follows the chain as printed.

Chain of human FcγRIa extracellular domain with C-terminal His tag (P12314 16-292): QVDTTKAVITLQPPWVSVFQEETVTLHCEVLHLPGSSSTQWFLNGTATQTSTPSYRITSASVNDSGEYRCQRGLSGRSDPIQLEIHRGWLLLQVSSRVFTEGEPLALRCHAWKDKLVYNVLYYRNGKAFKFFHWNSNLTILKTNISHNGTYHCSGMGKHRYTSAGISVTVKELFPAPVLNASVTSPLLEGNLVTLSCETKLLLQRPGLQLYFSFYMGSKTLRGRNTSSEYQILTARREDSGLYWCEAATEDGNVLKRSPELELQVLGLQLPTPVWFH

B1: IL6R-BP199/IL6R-L (antibody, human IgG1, kappa)
heavy: QVQLQESGPGLVKPSETLSLTCAVSGHSISHDHAWSWVRQPPGEGLEWIGFISYSGITNYNPSLQGRVTISRDNSKNTLYLQMNSLRAEDTAVYYCARSLARTTAMDYWGEGTLVTVSSASTKGPSVFPLAPSSKSTSGGTAALGCLVKDYFPEPVTVSWNSGALTSGVHTFPAVLQSSGLYSLSSVVTVPSSSLGTQTYICNVNHKPSNTKVDKKVEPKSCDKTHTCPPCPAPDLLGGDSVFLFPPKPKDTLMISRTPEVTCVVVDVSHEDPEVKFNWYVDGVEVHNAKTKPREEQYNSTYRVVSVLTVLHQDWLNGKEYKCKVSNAALPRPIEKTISKAKGQPREPQVYTLPPSRDELTKNQVSLTCLVKGFYPSDIAVEWESNGQPENNYKTTPPVLDSDGSFFLYSKLTVDKSRWQQGNVFSCSVMHEALHNHYTQESLSLSP
light: not shown
On to B1, for which the relative binding activity is 112 % of IL6R-BF648/IL6R-L in assay [1]; 116 % of IL6R-BF648/IL6R-L in [2]; 144 % of IL6R-BF648/IL6R-L in [3]; 103 % of IL6R-BF648/IL6R-L in assay [4]; 172 % of IL6R-BF648/IL6R-L in assay [5].

B2: human IgE (hIgE) (antibody)
heavy: QVQLVQSGAEVKKPGASVKVSCKASGYTFTDYEMHWVRQAPGQGLEWMGALDPKTGDTAYSQKFKGRVTLTADKSTSTAYMELSSLTSEDTAVYYCTRFYSYTYWGQGTLVTVSSASTQSPSVFPLTRCCKNIPSNATSVTLGCLATGYFPEPVMVTWDTGSLNGTTMTLPATTLTLSGHYATISLLTVSGAWAKQMFTCRVAHTPSSTDWVDNKTFSVCSRDFTPPTVKILQSSCDGGGHFPPTIQLLCLVSGYTPGTINITWLEDGQVMDVDLSTASTTQEGELASTQSELTLSQKHWLSDRTYTCQVTYQGHTFEDSTKKCADSNPRGVSAYLSRPSPFDLFIRKSPTITCLVVDLAPSKGTVNLTWSRASGKPVNHSTRKEEKQRNGTLTVTSTLPVGTRDWIEGETYQCRVTHPHLPRALMRSTTKTSGPRAAPEVYAFATPEWPGSRDKRTLACLIQNFMPEDISVQWLHNEVQLPDARHSTTQPRKTKGSGFFVFSRLEVTRAEWEQKDEFICRAVHEAASPSQTVQRAVSVNPGK
light: DVVMTQSPLSLPVTPGEPASISCRSSQSLVHSNRNTYLHWYLQKPGQSPQLLIYKVSNRFSGVPDRFSGSGSGTDFTLKISRVEAEDVGVYYCSQNTHVPPTFGQGTKLEIKRTVAAPSVFIFPPSDEQLKSGTASVVCLLNNFYPREAKVQWKVDNALQSGNSQESVTEQDSKDSTYSLSSTLTLSKADYEKHKVYACEVTHQGLSSPVTKSFNRGEC
Take B2: in assay [6], the binding result is “binds”.

B3: IL6R-BP478/IL6R-L (antibody)
heavy: QVQLQESGPGLVKPSETLSLTCAVSGHSISHDHAWSWVRQPPGEGLEWIGFISYSGITNYNPSLQGRVTISRDNSKNTLYLQMNSLRAEDTAVYYCARSLARTTAMDYWGEGTLVTVSSASTKGPSVFPLAPCSRSTSESTAALGCLVKDYFPEPVTVSWNSGALTSGVHTFPAVLQSSGLYSLSSVVTVPSSSLGTKTYTCNVDHKPSNTKVDKRVESKYGPPCPPCPAPDLLGDDSVFLFPPKPKDTLMISRTPEVTCVVVDVSDEDGEVKFNWYVDGVEVHNAKTKPREEQDNSTYRVVSVLTVLHQDWLNGKEYKCKVSNKALPRPIEKTISKAKGQPREPQVYTLPPSRDELTKNQVSLTCLVKGFYPSDIAVEWESNGQPENNYKTTPPVLDSDGSFFLYSKLTVDKSRWQQGNVFSCSVMHEALHNHYTQESLSLSP
light: not shown
As to B3, the “fold binding against IL6R-BP230/IL6R-L” value in [7] was determined as 1.1 times; in assay [8], 0.9 times.

B4: GA2-IgG1 (antibody, V domains shown)
VH: QVQLVQSGAEVKKPGSSVKVSCKASGGTFSSYAISWVRQAPGQGLEWMGGIIPIFGTANYAQKFQGRVTITADESTSTAYMELSSLRSEDTAVYYCARPRWETAISSDAFDIWGQGTMVTVSS
VL: DIQMTQSPSSLSASVGDRVTITCRASQSISDDLNWYQQKPGKAPKLLIYEASNLQSGVPSRFSGSGSGTDFTLTISSLQPEDFATYYCQQHSSSPLTFGQGTKVEIKR
For the molecule B4, in the assay with human IgA (hIgA), the “Ca-dependent hIgA-binding activity (fold)” value came to 100 times.
